{"source": "patent US5567302A", "about": "“Electrochemical system for rapid detection of biochemical agents that catalyze a redox potential change” (priority 1995, dated 1996)", "tested_on": "OC[C@H]1O[C@@H](Oc2c[nH]c3ccc(Br)c(Cl)c23)[C@H](O)[C@@H](O)[C@H]1O", "test": "purified protein, by the assay type", "details": "other: β-D-galactosidase substrate; stated when explaining why the standard curve levels off at high enzyme amounts"}
{"substance": "biotinylated β-D-galactosidase (Escherichia coli K-12)", "values": [{"measurement": "Km", "value": 3000, "unit": "µM"}]}
